Assay results from patent US7902330.
Each block holds one binder with its values, some of them ahead of it. Starred links: 1 amine or outer side, 2 acyl side, 3 side chain; linkers in the order of their positions; H or OH if unused. Non-standard residues stand in square brackets, D forms with d. No end group written: not given here. *: point of attachment. 4‑nitrohippuryl = O=C(NCC(=O)*)c1ccc([N+](=O)[O-])cc1; Benzoyl(4-(pyrrol-1-yl)) = O=C(c1ccc(-n2cccc2)cc1)*; bis(2,3-dihydroxybenzyl) = not defined here; 10‑hydroxydecanoyl = O=C(CCCCCCCCCO)*; Cysteamide = C(CS[*:3])N[*:1]; Dap = NC[C@H](N)C(=O)O

Columns and labels:
other PKC isoforms = assay: cell-based or functional assay
a subset of other PKCs = assay: cell-based or functional assay
[1] = target: protein kinase C δ, Q05655; assay: cell-based or functional assay
[2] = target: T1, acetyl-Pro-Arg-Lys-Arg-Glu-Gly-Ser-Val-Arg-Arg-Arg-NH2
T1 chain: PRKREGSVRRR

- selectivity for PKCα versus other PKC isoforms (other PKC isoforms): < 3 fold
Binder: Ac-ARRGALR[Dap](Benzoyl(4-(pyrrol-1-yl)))A-Cysteamide [compound 3 (lead from library III)]

- selectivity for PKC ζ versus a subset of other PKCs (a subset of other PKCs): < 10 fold
Binder: Ac-RRQG[Dap](10‑hydroxydecanoyl)FMYF-Cysteamide [Compound B]

- selectivity for PKCα versus this isoform [1]: 2730 fold
Binder: ARRGALR[Dap](Benzoyl(4-(pyrrol-1-yl)))A-Cysteamide (also: further groups not given here) [compound 6 (primary lead from library IV)]

- Fold selectivity (IC50), PKC ζ = 1 [1]: 693 fold
- IC50, PKC kinase assay (33P, peptide substrate) [1]: 5.2 µM
Binder: {bis(2,3-dihydroxybenzyl)}-RRQG[Dap](4‑nitrohippuryl)FMYF-Cysteamide (reading uncertain) [Compound G (doubly alkylated analogue of F)]

- IC50, PKC kinase assay (33P, peptide substrate) [1]: 0.025 µM
- Selectivity (IC50 relative to PKC βI = 1) [1]: 3.1 fold
Binder: H-RRQG[Dap]FMYF-Cysteamide (not fully specified (residue 5)) [Compound E (nonacylated free amine)]

B1: protein kinase C ε (protein)
chain: MVVFNGLLKIKICEAVSLKPTAWSLRHAVGPRPQTFLLDPYIALNVDDSRIGQTATKQKTNSPAWHDEFVTDVCNGRKIELAVFHDAPIGYDDFVANCTIQFEELLQNGSRHFEDWIDLEPEGRVYVIIDLSGSSGEAPKDNEERVFRERMRPRKRQGAVRRRVHQVNGHKFMATYLRQPTYCSHCRDFIWGVIGKQGYQCQVCTCVVHKRCHELIITKCAGLKKQETPDQVGSQRFSVNMPHKFGIHNYKVPTFCDHCGSLLWGLLRQGLQCKVCKMNVHRRCETNVAPNCGVDARGIAKVLADLGVTPDKITNSGQRRKKLIAGAESPQPASGSSPSEEDRSKSAPTSPCDQEIKELENNIRKALSFDNRGEEHRAASSPDGQLMSPGENGEVRQGQAKRLGLDEFNFIKVLGKGSFGKVMLAELKGKDEVYAVKVLKKDVILQDDDVDCTMTEKRILALARKHPYLTQLYCCFQTKDRLFFVMEYVNGGDLMFQIQRSRKFDEPRSRFYAAEVTSALMFLHQHGVIYRDLKLDNILLDAEGHCKLADFGMCKEGILNGVTTTTFCGTPDYIAPEILQELEYGPSVDWWALGVLMYEMMAGQPPFEADNEDDLFESILHDDVLYPVWLSKEAVSILKAFMTKNPHKRLGCVASQNGEDAIKQHPFFKEIDWVLLEQKKIKPPFKPRIKTKRDVNNFDQDFTREEPVLTLVDEAIVKQINQEEFKGFSYFGEDLMP
- Km of the peptide substrate [2]: 5.9 µM (PKCε)

- selectivity for PKC ζ versus a subset of other PKCs (a subset of other PKCs): < 10 fold
B2: Compound C (peptide)
peptide: Ac-RRQG[Dap](4‑nitrohippuryl)FMYF-Cysteamide
SMILES: CSCC[C@H](NC(=O)[C@H](Cc1ccccc1)NC(=O)[C@H](CNC(=O)CNC(=O)c1ccc([N+](=O)[O-])cc1)NC(=O)CNC(=O)[C@H](CCC(N)=O)NC(=O)[C@H](CCCNC(=N)N)NC(=O)[C@H](CCCNC(=N)N)NC(C)=O)C(=O)N[C@@H](Cc1ccc(O)cc1)C(=O)N[C@@H](Cc1ccccc1)C(=O)NCCS

- IC50, PKC kinase assay [1]: 50 µM
Binder: Ac-RRQG[Dap](Ac)FMYF-Cysteamide [Compound A (diacetylated consensus derivative)]
